Test results published in EP3370777B1.

Biological target: His-tagged eukaryotic Elongation Factor 2 (eEF2) expressed in S. cerevisiae
Assay: cell-based or functional assay

recombinant Exotoxin A (SEQ ID NO: 4), expressed in E. coli NiCo21(DE3) as His-tagged SUMO fusion, SUMO-tag removed (enzyme)
ADP-ribosylation activity EC50 [µg/µl] (Example 1, soluble fraction): 0.6 µg/µL
ADP-ribosylation activity EC50 [µg/µl] (Example 2, method of the invention): 0.52 µg/µL
